Drawing on paper PMC5700975 (2017), this text covers percent of parent for 16 variants.

B1: Myc3-iSH2-p110β (wild type) [bovine | human] / GST-Rab5 wild-type [canine] (parent complex)
chain 1: LYEDYTRTSQEIQMKRTAIEAFNETIKIFEEQCQTQERYSKEYIEKFKREGNETEIQRIMHNYEKLKSRISEIVDSRRRLEEDLKKQAAEYREIDKRMNSIKGGGGGGGMCFSFIMPPAMADILDIWAVDSQIASDGSIPVDFLLPTGIYIQLEVPREATISYIKQMLWKQVHNYPMFNLLMDIDSYMFACVNQTAVYEELEDETRRLCDVRPFLPVLKLVTRSCDPGEKLDSKIGVLIGKGLHEFDSLKDPEVNEFRRKMRKFSEEKILSLVGLSWMDWLKQTYPPEHEPSIPENLEDKLYGGKLIVAVHFENCQDVFSFQVSPNMNPIKVNELAIQKRLTIHGKEDEVSPYDYVLQVSGRVEYVFGDHPLIQFQYIRNCVMNRALPHFILVECCKIKKMYEQEMIAIEAAINRNSSNLPLPLPPKKTRIISHVWENNNPFQIVLVKGNKLNTEETVKVHVRAGLFHGTELLCKTIVSSEVSGKNDHIWNEPLEFDINICDLPRMARLCFAVYAVLDKVKTKKSTKTINPSKYQTIRKAGKVHYPVAWVNTMVFDFKGQLRTGDIILHSWSSFPDELEEMLNPMGTVQTNPYTENATALHVKFPENKKQPYYYPPFDKIIEKAAEIASSDSANVSSRGGKKFLPVLKEILDRDPLSQLCENEMDLIWTLRQDCREIFPQSLPKLLLSIKWNKLEDVAQLQALLQIWPKLPPREALELLDFNYPDQYVREYAVGCLRQMSDEELSQYLLQLVQVLKYEPFLDCALSRFLLERALGNRRIGQFLFWHLRSEVHIPAVSVQFGVILEAYCRGSVGHMKVLSKQVEALNKLKTLNSLIKLNAVKLNRAKGKEAMHTCLKQSAYREALSDLQSPLNPCVILSELYVEKCKYMDSKMKPLWLVYNNKVFGEDSVGVIFKNGDDLRQDMLTLQMLRLMDLLWKEAGLDLRMLPYGCLATGDRSGLIEVVSTSETIADIQLNSSNVAAAAAFNKDALLNWLKEYNSGDDLDRAIEEFTLSCAGYCVASYVLGIGDRHSDNIMVKKTGQLFHIDFGHILGNFKSKFGIKRERVPFILTYDFIHVIQQGKTGNTEKFGRFRQCCEDAYLILRRHGNLFITLFALMLTAGLPELTSVKDIQYLKDSLALGKSEEEALKQFKQKFDEALRESWTTKVNWMAHTVRKDYRS
chain 2: ANRGATRPNGPNTGNKICQFKLVLLGESAVGKSSLVLRFVKGQFHEFQESTIGAAFLTQTVCLDDTTVKFEIWDTAGQERYHSLAPMYYRGAQAAIVVYDITNEESFARAKNWVKELQRQASPNIVIALSGNKADLANKRAVDFQEAQSYADDNSLLFMETSAKTSMNVNEIFMAIAKKLPKNEPQNPGANSARGRGVDLTEPTQPTRSQCCSN

The first assay covers variants of B1. Briefly: GST pull-down, anti-Myc immunoblot quantification; GST-Rab5 fusion proteins (10 µg) on glutathione Sepharose beads, GppCp-loaded; Myc-iSH2-p110β from transfected COS-1 lysates; parent: 100; read off a plot. (A western blot detects proteins with antibodies after separation by electrophoresis.)
In the case of chain 2 L84A, the percent of parent was roughly 16 % WT.
Same read-out and setting: the result for chain 2 F56A reads roughly 24 % WT.
For chain 2 H82E, the percent of parent is roughly 12 % WT.
As for chain 2 Y81A, the percent of parent was roughly 8 % WT.
Consider chain 2 Y88A, for which the percent of parent is roughly 15 % WT.
Regarding chain 2 S83A, the percent of parent is roughly 112 % WT.
Still for that read-out and setting: the result for chain 2 R90E reads roughly 20 % WT; that for chain 2 I52A, roughly 7 % WT.
On the same count and under the same terms, the result for chain 2 H45A reads roughly 110 % WT; that for chain 2 E46A, roughly 72 % WT; that for chain 2 R80E, roughly 23 % WT.
Same read-out and setting: the result for chain 2 Q43E reads roughly 115 % WT; that for chain 2 W73A, roughly 26 % WT.

Variants of B1 are the subject of the next assay. Put plainly: GST pull-down, anti-Myc immunoblot quantification; GST-Rab5 loaded with GppCp; parent: 100; read off a plot.
In the case of chain 1 L341A, the percent of parent is roughly 117 % WT.
The same measure, in the same setting: next, chain 1 Y353A: roughly 7 % WT; chain 1 D348R: roughly 190 % WT.
